Laboratory results as given in patent publication US20230035403A1 (Janssen / Centocor, published 2023).

B1: P35 9-mer NSKMALNSL (peptide)
peptide: NSKMALNSL
notes: 9-mer fragment of neoantigen P35; synthetic peptide
B2: P16 9-mer STRRAVRRM (peptide)
peptide: STRRAVRRM
notes: 9-mer fragment of neoantigen P16 (MSMB-NCOA4 fusion); synthetic peptide
B3: P50 9-mer IQYSCMGLM (peptide)
peptide: IQYSCMGLM
notes: 9-mer fragment of neoantigen P50; synthetic peptide
B4: P37 9-mer GVLRRLLCR (peptide)
peptide: GVLRRLLCR
notes: 9-mer fragment of neoantigen P37; synthetic peptide
B5: P59 9-mer NMVENGCYL (peptide)
peptide: NMVENGCYL
notes: 9-mer fragment of neoantigen P59; synthetic peptide
B6: P77 9-mer FFKRAAEGF (peptide)
peptide: FFKRAAEGF
notes: 9-mer fragment of neoantigen P77 (AR-V3); synthetic peptide
B7: P27 9-mer FPVGAEGTF (peptide)
peptide: FPVGAEGTF
notes: 9-mer fragment of neoantigen P27; synthetic peptide

Assays:
Assay in all cases: UV-induced peptide exchange, HLA class I ELISA; Pos peptide = 100%;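 also: Streptavidin-captured biotinylated HLA class I complexes detected by HRP-conjugated anti-human B2M antibody, absorbance readout of intact complex amount after exchange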
[1] = biological target: T1, HLA-A*02:01 (human, biotinylated heavy chain)
T1 construct: Conditional HLA class I complex whose UV-labile peptide is exchanged for the test peptide
Experimental: (§1) The exchange efficiency between the peptide of interest and Pos was analyzed using an HLA class I ELISA.
(§2) The HLA class I ELISA is an enzyme immunoassay based on the detection of beta2-microglobulin (B2M) of (peptide-stabilized) HLA class I complexes. To this end streptavidin was bound onto polystyrene microtiter wells. After washing and blocking, HLA complex present in exchange reaction mixtures or ELISA controls was captured by the streptavidin on the microtiter plate via its biotinylated heavy chain. Non-bound material was removed by washing. Subsequently, horseradish peroxidase (HRP)-conjugated antibody to human B2M was added. […] In the latter case B2M was removed during the washing step. After removal of non-bound HRP conjugate by washing, a substrate solution was added to the wells. A coloured product formed in proportion to the amount of intact HLA complex present in the samples. After the reaction was terminated by the addition of a stop solution, absorbance was measured in a microtiter plate reader.

[2] = biological target: T2, HLA-A*01:01 (human, biotinylated heavy chain)
T2 construct: Conditional HLA class I complex whose UV-labile peptide is exchanged for the test peptide
Experimental: as §1, §2

[3] = biological target: T3, HLA-A*03:01 (human, biotinylated heavy chain)
T3 construct: Conditional HLA class I complex whose UV-labile peptide is exchanged for the test peptide
Experimental: as §1, §2

[4] = biological target: T4, HLA-A*24:02 (human, biotinylated heavy chain)
T4 construct: Conditional HLA class I complex whose UV-labile peptide is exchanged for the test peptide
Experimental: as §1, §2

[5] = biological target: T5, HLA-B*07:02 (human, biotinylated heavy chain)
T5 construct: Conditional HLA class I complex whose UV-labile peptide is exchanged for the test peptide
Experimental: as §1, §2

| Binder | exchange rate with Pos peptide [1] [%] | exchange rate with Pos peptide [2] [%] | exchange rate with Pos peptide [3] [%] | exchange rate with Pos peptide [4] [%] | exchange rate with Pos peptide [5] [%] |
| --- | --- | --- | --- | --- | --- |
| B1 | 12.5 | 2.5 | 4.2 | 0.2 | 12.1 |
| B2 | 10.4 | 5.5 | 6.1 | 0.8 | 13.7 |
| B3 | 8.8 | 2.3 | 5.5 | 0.1 | 10.4 |
| B4 | 12.5 | 1.4 | 6.4 | -0.1 | – |
| B5 | 11.9 | 2.2 | 4.5 | -0.5 | 7.5 |
| B6 | – | 1.9 | 2.8 | 1.7 | 14.2 |
| B7 | 10 | 4.8 | 4.5 | 0.7 | 7.8 |
